We go through nine molecules from patent US20220195015A1 (published 2022).

The labels stand for the following.
B1: C703 (antibody, V domains shown)
VH: EVQLLESGGGLVQPGGSLRLSCAGSGFTFSHYALSWVRQAPGKGLEWVSCISGTGGNSHYADSVKGRFTSSRDNSKNILYLQMNSLRAEDTAVYFCAKGGDFWSGYLIPFDSWGQGTLVTVSS
VL: SYELTQSPSVSVAPGKTARITCGGDSIGSKNVHWYQQKPGQAPVLVMYYDNDRPSGIPERFSGYNSGNTATLSISRVEAGDEADYYCLVWDGSGDPWVFGGGTKLTVL
B2: C706 (antibody, V domains shown)
VH: EVQLVESGGGLVKPGGSLRLSCAASGFTFSNVWMSWVRQAPGKGLEWVGRIKSKIDGGTTEYAAPVKGRFIISRDDSKNTLSLQMNSLKTEDTAVYYCTTDHGREPPVHWGQGTLVTVSS
VL: EIVLTQSPGTLSLSPGERASLSCRARQSVYSNYLAWYQHKSGQAPRLLFYGASSRATDIPDRFSASGSGTDFTLTISRLEPEDFAVYYCLQYGPSPTFGPGTRLEIK
B3: C049 (antibody, V domains shown)
VH: QVQLQESGPGLVKPSETLSLTCTVSGGSVSSGTFYWSWIRQPPGKGLEWIGYIHYSGSTNYNPSLKSRVTISVDTSKNQFSLRLSSVTAADTAVYYCARESFYYDRSGYYGSDAFDIWGQGTMVTVSS
VL: DIQMTQSPSTLSSSVGDRVTITCRASQNISRWLAWYQQKPGKAPKLLIYKASTLESGVPSRFSGSGSGTKFTLTISSLQPDDFATYYCQQYNSYLYTFGQGTKLEIK
B4: C048 (antibody, V domains shown)
VH: VQLQESGPGLVKPSETLSLTCAVSGGSVSSGNYYWNWIRQPPGKGLEWIGYIYYSGSTNYNPSLKSRVTISVDTSKNQFSLKLNSVTAADTAVYHCARETYYYDSSGYYISDAFDIWGQGTMVTVSS
VL: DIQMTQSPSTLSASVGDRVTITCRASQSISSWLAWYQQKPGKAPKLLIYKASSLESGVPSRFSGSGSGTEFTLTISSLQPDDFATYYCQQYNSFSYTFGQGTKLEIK
B5: C708 (antibody, V domains shown)
VH: EVQLVESGGGLVQPGGSLRLSCAASGFSFSTYWMSWVRQAPGKGLEWVADIKQDGSEKYFVDSVKGRFTISRDNAKNSLYLHLNSLRAEDTAVYYCAREMAGSGNYYWFGYGMDVWGQGTTVTVSS
VL: IRMTQSPSSVSASVGDRVTITCRASQGISSWLAWYQQKPGKAPKLLIYAASSLQSGVPSRFSGSESGTDFTLTISSLQPEDFATYYCQQANSFPLTFGGGTKVEIK
B6: C704 (antibody, V domains shown)
VH: VQLVESGGGVVQPGRSLRLSCAASGFTFSRYGMHWVRQAPGKGLEWVAVSSYDGSNEYYANSVKGRFTISRDNSKNTLYLQMNSLRAEDTAVYYCAKTGASYCGGDCPFHFDYWGQGTLVTVSS
VL: IRMTQSPSSLSASVGDRVTITCQASQDINNYLNWYQQKPGKAPKLLIYDASDLETGVPSRFSGGGSGTDFTFTISSLQPEDIATYYCQHYNNLPITFGQGTRLEIK
B7: C047 (antibody, V domains shown)
VH: QVQLQESGPGLVKPSETLSLTCTVSGGSISSTTYYWDWIRQSPGKGLEWIGSIFYTGITYYSPSLKSRVTISVDTSKNQFSLRLNSMTAADTAVYYCARRLRQLWFGPWFDPWGQGTLVTVSS
VL: QSALTQPPSASGSPGQSVTISCTGTRSDVGDYNYVSWYQQHPDKAPKLIIYEVTKRPSGVPDRFSGSKSGNTASLTVSGLQAEDEADYYCSSYAGSNNVMFGGGTKLTVL
B8: C710 (antibody, V domains shown)
VH: B7 VH with T23I, S30N, S67T
VL: B7 VL with Y51F, N97S
B9: C707 (antibody, V domains shown)
VH: EVQLVESGGGLVKPGGSLRLSCAASGFTFSSYSMNWVRQAPGKGLAWVSSISSSNNIIYYADSVKGRFTISRDDAKDSLYLHMKSLRADDTAVYFCARVPSWAPYQLLPGPFDYWGQGILVTVSS
VL: IRMTQSPSSLSASVGDRVTITCQASQAIASYLSWYQHKPGRAPKLLIYDASNLEIGVPSRFSGSGSGTDFTFTISSLQSEDNATYYCQQYESLPGTFGGGTKVEIK

Positions count from the first letter of the chain named.

The target in the experiment is SARS-CoV-2 spike protein receptor binding domain (RBD) (SARS-CoV-2, UniProt P0DTC2 319-539). The experiment can be described thus: ELISA on plate-coated RBD.
For the molecule B1, a half-maximal effect (EC50) was put at 0.0109 mg/L.

B2: a half-maximal effect (EC50) was put at 0.0735 mg/L. Compared with the last molecule, the EC50 is about 6.7-fold higher.

As for B3, the half-maximal effective concentration (EC50) (commonly the concentration needed to bring the measured effect to its halfway point) turned out to be 0.00409 mg/L. To B4 belongs 0.0048 mg/L. In turn, B5 returned an EC50 of 0.13 mg/L. This EC50 lies about 27-fold higher than the previous one. Take B6: the EC50 is 0.0134 mg/L. The value for B7 was 0.0111 mg/L; that for B8 was 0.0178 mg/L; that for B9 was 0.026 mg/L.
